{"source": "patent US6414113B1", "about": "“Peptides binding to bone marrow stromal cell antigen” (Biomolecular Engineering Research Institute, priority 1998, dated 2002)", "molecules": {"B1": {"name": "synthetic peptide SNP-1 (peptide)", "peptide": "HSQISGKYQRYLKDA", "notes": "15-residue synthetic peptide, purity 95% or more; also called prototype SNP-1; original SNP-1"}, "B2": {"name": "phage SN-16 (phage expressing the peptide defined by SEQ ID NO: 2) (peptide)", "peptide": "DDVVYTNIHKWGRRE", "notes": "not shown: phage coat protein of the Fuse 5 vector to which the peptide is fused; not specified"}, "B3": {"name": "phage SN-1 (phage expressing the peptide defined by SEQ ID NO: 1) (peptide)", "peptide": "HSQISGKYQRYLKDA", "notes": "as for B2"}}, "key": {"BST-1": {"target": "T1, BST-1 (Homo sapiens, UniProt Q10588)", "T1 construct": "made in house; host or cells: baculovirus (pVL1393); virus made in Sf9, protein expressed in High five insect cells", "T1 sequence (Q10588 33-297)": "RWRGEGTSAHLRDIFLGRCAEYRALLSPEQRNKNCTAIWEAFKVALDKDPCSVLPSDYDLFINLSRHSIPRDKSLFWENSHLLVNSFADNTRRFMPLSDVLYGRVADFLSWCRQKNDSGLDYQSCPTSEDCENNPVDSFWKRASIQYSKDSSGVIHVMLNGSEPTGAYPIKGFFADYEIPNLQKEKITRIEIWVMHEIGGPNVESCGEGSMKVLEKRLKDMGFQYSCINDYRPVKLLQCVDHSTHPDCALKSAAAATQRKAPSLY", "test": "Inhibition of ADP-ribosyl cyclase activity of BST-1 (NGD method)", "assay_type": "biochemical", "conditions": "DTT 10 mM", "text": "The fact that the peptide thus obtained inhibits ADP-ribosyl cyclase activity of BST-1 may be identified by comparing the ADP-ribosyl cyclase activity when measured in the absence of the peptide with the activity in the presence of the peptide. As previously mentioned, NAD is converted to cADP-ribose by ADP-ribosyl cyclase activity of BST-1, and therefore, the activity may be measured by allowing to react NAD with BST-1 and then quantitatively determining NAD and cADP-ribose after separation of them by anion-exchange chromatography (FEBS letters, 356, 244, 1994). Alternatively, nicotinamide guanine dinucleotide (NGD) may be used as a substrate instead of NAD, which is converted to cyclic guanosine-5′-diphosphate-ribose cGDP-ribose that can be fluorimetrically measured with an excitation wavelength of 300 nm and an emission wavelength of 410 nm, whereby the velocity of the formation of cGDP-ribose reflects ADP-ribosyl cyclase activity (J. Biol. Chem., […], 30260, 1994).\nThe abscissa is time course and the ordinate is fluorescence intensity. Purified BST-1 (4 μg/ml) was mixed with NGD (300 μM), and the mixture was allowed to react at 25° C. for 300 seconds, and then the synthetic peptide SNP-1 was added thereto at the concentration of 20 μM.\nInhibition of ADP-ribosyl cyclase activity of BST-1 by synthetic peptides was tested by means of the NGD method previously mentioned. […]"}, "[1]": {"target": "T2, soluble human bone marrow stromal cell antigen-1 (BST-1) (human, UniProt Q10588 33-297)", "T2 construct": "range 1-297; Expressed with baculovirus in High five insect cells, purified to 95% or more; The construct encodes codons 1-297; also called purified BST-1; soluble BST-1", "T2 sequence (looked up)": "T1 sequence (Q10588 33-297)", "test": "Biacore SPR, BST-1 amine-coupled on CM5, equilibrium values at 400-2000 nM peptide, Scatchard plot", "procedure": "BST-1 was immobilized at 2800 resonance unit (RU) on the sensor chip CM5 of a bio-sensor for analyzing protein interactions, BIACORE (Biacore K.K.), by means of an amine coupling method. The synthetic peptides were passed through the sensor chip at the flow rate of 40 µl/min at the concentration of from 400 nM to 2000 nM. Equilibrium binding value was obtained for each concentration. Based on the equilibrium binding values, dissociation constants were calculated by means of Scatchard plot method (Hulme E. C.; Receptor-binding studies, a brief outline, in Receptor Biochemistry: A Practical Approach, 303–315, IRL press, 1990)."}, "bovine serum albumin": {"target": "T3, bovine serum albumin (bovine, UniProt P02769 25-607)", "T3 construct": "also called BSA", "T3 sequence (P02769 25-607 limits assumed)": "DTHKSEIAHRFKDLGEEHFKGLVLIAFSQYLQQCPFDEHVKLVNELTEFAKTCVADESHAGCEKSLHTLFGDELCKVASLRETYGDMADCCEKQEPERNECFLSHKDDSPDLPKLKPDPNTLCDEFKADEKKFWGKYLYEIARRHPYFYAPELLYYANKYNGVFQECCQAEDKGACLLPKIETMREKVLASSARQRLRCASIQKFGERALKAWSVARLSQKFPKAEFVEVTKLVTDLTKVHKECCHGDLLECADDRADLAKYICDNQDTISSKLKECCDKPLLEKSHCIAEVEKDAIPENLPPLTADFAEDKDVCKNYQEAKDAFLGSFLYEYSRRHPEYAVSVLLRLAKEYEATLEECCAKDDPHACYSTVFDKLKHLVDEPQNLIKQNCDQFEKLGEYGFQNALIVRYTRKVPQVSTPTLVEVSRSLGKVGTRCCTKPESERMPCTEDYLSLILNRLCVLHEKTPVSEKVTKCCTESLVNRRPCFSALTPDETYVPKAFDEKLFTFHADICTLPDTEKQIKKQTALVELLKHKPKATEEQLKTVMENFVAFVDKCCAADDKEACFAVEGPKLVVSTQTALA", "test": "phage ELISA, well coated with BSA alone"}}, "note": "Where no end group is shown, it is not given here. The star is where a group is joined. Biotin = O=C1N[C@H]2[C@H](CS[C@H]2CCCCC(=O)*)N1", "data": [{"molecule": "O[C@@H](CS)[C@@H](O)CS", "note": "[DTT]", "values": [{"measurement": "ADP-ribosyl cyclase activity of BST-1 after addition of reducing agent", "setting": "BST-1", "result": "complete disappearance"}]}, {"molecule": "B1", "values": [{"measurement": "Kd", "setting": "[1]", "result": 510, "unit": "nM"}]}, {"molecule": "{Sulfo‑NHS‑LC‑Biotin}-HSQISGKYQRYLKDA", "note": "[bSNP-1 (SNP-1 biotinylated at the N-terminal)]", "values": [{"measurement": "Kd", "setting": "[1]", "result": 530, "unit": "nM"}]}, {"molecule": "B2", "values": [{"measurement": "binding result", "setting": "bovine serum albumin", "result": "no binding"}]}, {"molecule": "B3", "values": [{"measurement": "binding result", "setting": "bovine serum albumin", "result": "no binding"}]}, {"molecule": "HSQISGKYQRYLKDAK(Biotin)", "note": "[SNPb-1 (SNP-1 with an additional C-terminal Lys carrying biotin)]", "values": [{"measurement": "Kd", "setting": "[1]", "result": 810, "unit": "nM"}]}]}
